# Columns and labels:
# [1] = target: T1, recombinant human PCSK9-His protein (Immunogen A) (human, UniProt Q8NBP7 31-692, limits assumed, biotinylated in the ELISA assays); assay: BLI, Octet Red 96; antibody on AHC sensor
# T1 construct: also called hPCSK9-His; His-tagged hPCSK9; not shown: His tag
# [2] = target: T2, recombinant cyno monkey PCSK9 protein (cyno monkey, UniProt A8T666 31-692 (rhesus entry), limits assumed, biotinylated in the ELISA assays); assay: ELISA; antibody 6.67 nM
# T2 construct: also called cyno PCSK9; Cyno Monkey PCSK9-His
# [3] = target: T1, recombinant human PCSK9-His protein …; assay: ELISA; antibody 0.0067 nM
# [4] = target: T1, recombinant human PCSK9-His protein …; assay: ELISA of PCSK9 binding to LDLR ECD; antibody 1.6 nM
# [5] = target: T2, recombinant cyno monkey PCSK9 protein; assay: ELISA; antibody 0.67 nM
# [6] = target: T1, recombinant human PCSK9-His protein …; assay: ELISA; antibody 0.00067 nM
# [7] = target: T1, recombinant human PCSK9-His protein …; assay: ELISA of PCSK9 binding to LDLR ECD; antibody 200 nM
# [8] = target: T1, recombinant human PCSK9-His protein …; assay: SPR, Biacore T200; antibody captured by anti-human Fc
# Description: Anti-human Fc IgG was immobilized on flow cells 1 and 2: HBS-EP+(10 mM HEPES, 150 mM NaCl, 3 mM EDTA, 0.05% P20, pH 7.4) was used as running buffer, and the immobilization of anti-human Fc IgG was carried out using the immobilization wizard template. Flow cells 1 and 2 of a Series S CM5 sensor chip were activated with freshly-mixed 50 mmol/L NHS and 200 mmol/L EDC. 20 ug/mL of anti-human Fc IgG diluted in 10 mM NaAC (pH 4.5) was injected into the activated flow cells 1 and 2. The remaining active coupling sites were blocked with 1M ethanolamine.
# KD measurements were carried out with HBS-EP+ as the running buffer. Each antibody was injected over the CM5 sensor flow cell 2 with a flow rate of 10 uL/min to reach response 230 RU. […] Buffer flow was maintained for 400 seconds for dissociation measurements (30 uL/min). To remove the tested antibody from the surface, 10 mM glycine-HCl pH 1.5 was injected for 20 seconds (30 ulJmin). Flow cell 1 was used as reference flow cell. […] The KD value for each antibody was evaluated using Biacore T200 evaluation software 1.0, and the data was fit with a 1:1 binding model.
# [9] = target: T1, recombinant human PCSK9-His protein …; assay: ELISA of PCSK9 binding to LDLR ECD; antibody 8 nM
# [10] = target: T1, recombinant human PCSK9-His protein …; assay: ELISA of PCSK9 binding to LDLR ECD; antibody 0.01 nM
# [11] = target: T1, recombinant human PCSK9-His protein …; assay: ELISA; antibody 0.67 nM
# [12] = target: T1, recombinant human PCSK9-His protein …; assay: ELISA of PCSK9 binding to LDLR ECD; antibody 0.06 nM
# [13] = target: T1, recombinant human PCSK9-His protein …; assay: ELISA; antibody 0.067 nM
# [14] = target: T2, recombinant cyno monkey PCSK9 protein; assay: ELISA; antibody 0 nM
# [15] = target: T1, recombinant human PCSK9-His protein …; assay: ELISA of PCSK9 binding to LDLR ECD; antibody 0 nM
# [16] = target: T1, recombinant human PCSK9-His protein …; assay: ELISA; antibody 6.67 nM
# [17] = target: T2, recombinant cyno monkey PCSK9 protein; assay: ELISA; antibody 66.67 nM
# [18] = target: T1, recombinant human PCSK9-His protein …; assay: ELISA; antibody 0 nM
# [19] = target: T2, recombinant cyno monkey PCSK9 protein; assay: ELISA; antibody 0.067 nM
# [20] = target: T2, recombinant cyno monkey PCSK9 protein; assay: ELISA; antibody 0.00067 nM
# [21] = target: T1, recombinant human PCSK9-His protein …; assay: ELISA; antibody 66.67 nM
# [22] = target: T1, recombinant human PCSK9-His protein …; assay: ELISA of PCSK9 binding to LDLR ECD; antibody 40 nM
# [23] = target: T1, recombinant human PCSK9-His protein …; assay: ELISA; antibody 0.000067 nM
# [24] = target: T2, recombinant cyno monkey PCSK9 protein; assay: ELISA; antibody 0.0067 nM
# [25] = target: T2, recombinant cyno monkey PCSK9 protein; assay: ELISA; antibody 0.000067 nM
# [26] = target: T1, recombinant human PCSK9-His protein …; assay: ELISA of PCSK9 binding to LDLR ECD; antibody 0.32 nM
# T2 sequence (A8T666 31-692 limits assumed): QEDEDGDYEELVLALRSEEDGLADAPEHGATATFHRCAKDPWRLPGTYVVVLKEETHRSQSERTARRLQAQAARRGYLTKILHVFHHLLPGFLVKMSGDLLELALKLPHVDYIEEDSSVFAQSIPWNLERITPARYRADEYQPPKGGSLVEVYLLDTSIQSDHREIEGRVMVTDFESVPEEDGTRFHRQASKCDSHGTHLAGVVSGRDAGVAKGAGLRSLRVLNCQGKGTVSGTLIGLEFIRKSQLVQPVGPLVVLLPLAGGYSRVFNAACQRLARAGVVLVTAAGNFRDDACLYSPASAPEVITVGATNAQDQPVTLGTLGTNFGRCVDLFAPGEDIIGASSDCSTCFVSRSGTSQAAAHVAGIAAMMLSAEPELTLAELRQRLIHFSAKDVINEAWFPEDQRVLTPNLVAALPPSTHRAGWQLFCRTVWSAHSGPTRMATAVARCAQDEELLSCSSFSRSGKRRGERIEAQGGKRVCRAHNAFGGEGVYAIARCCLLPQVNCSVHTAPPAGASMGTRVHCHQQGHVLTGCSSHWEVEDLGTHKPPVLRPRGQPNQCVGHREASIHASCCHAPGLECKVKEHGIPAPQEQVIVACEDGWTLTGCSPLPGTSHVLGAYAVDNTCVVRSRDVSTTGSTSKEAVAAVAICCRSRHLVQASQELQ
Kd [1] [nM],OD450 nm [2] [OD450 nm],OD450 nm [3] [OD450 nm],OD450 nm [4] [OD450 nm],OD450 nm [5] [OD450 nm],OD450 nm [6] [OD450 nm],OD450 nm [7] [OD450 nm],OD450 nm [9] [OD450 nm],OD450 nm [10] [OD450 nm],OD450 nm [11] [OD450 nm],OD450 nm [12] [OD450 nm],OD450 nm [13] [OD450 nm],OD450 nm [14] [OD450 nm],OD450 nm [15] [OD450 nm],OD450 nm [16] [OD450 nm],OD450 nm [17] [OD450 nm],OD450 nm [18] [OD450 nm],OD450 nm [19] [OD450 nm],OD450 nm [20] [OD450 nm],OD450 nm [21] [OD450 nm],Binder,further results
14.5,2.73,0.23,2.19,2.1,0.08,1.41,1.76,2.31,3,2.28,1.52,0.06,2.4,3.04,2.86,0.06,0.48,0.06,3.04,"74C10A8, fully human anti-PCSK9 antibody (antibody, human IgG1, V domains shown) VH: QVQLQESGPGLVKPSETLSLTCSVSGGSINTYYWSWIRQPPGKGLEWIGYIYYSGSTNYNPSLKSRVTISVDTSKNQFSLKLTSVTAADTAVYYCARERFTMVRGVMMDYYYYGMDVWGQGTTVTVSS VL: DIQLTQSPSFLSASVGDRVTITCRASQGISSYLAWYQQKPGKAPKLLIYAASTLQSGVPSRFSGSGSGTEFTLTISSLQPEDFATYYCQQLNSYPRTFGQGTKVEIK",OD450 nm [22]: 1.43 OD450 nm; OD450 nm [23]: 0.06 OD450 nm; OD450 nm [24]: 0.11 OD450 nm; OD450 nm [25]: 0.13 OD450 nm; OD450 nm [26]: 2.32 OD450 nm
2.69,2.89,0.15,2.19,1.56,0.07,1.32,1.86,2.27,2.91,2.25,0.94,0.06,2.29,3.12,2.97,0.06,0.26,0.06,3.07,"152G2F7, fully human anti-PCSK9 antibody (antibody, human IgG1, V domains shown) VH: EVQLVESGGGLVQPGGSLRLSCAASEFTFGGYWMTWVRQAPGKGLEWVANIKQDGSEKYYVDSVKGRFTISRDNAKNSLYLHMNSLRAEDTAVYYCARDRTTMIRGVSLYYYYYGMDVWGQGTAVTVSS VL: EIVLTQSPATLSLSPGERATLSCRASQSVSSYLAWYQQKPGQAPRLLIYDASNRATGIPARFSGSGSGTDFTLTISSLEPEDFAVYYCQQRSNWPLTFGGGTKVEIK",koff [1]: 0.000453 s⁻¹; kon [1]: 168000 M⁻¹ s⁻¹; OD450 nm [22]: 1.31 OD450 nm; OD450 nm [23]: 0.06 OD450 nm; OD450 nm [24]: 0.08 OD450 nm; OD450 nm [25]: 0.07 OD450 nm; OD450 nm [26]: 2.31 OD450 nm

# The remaining lines, values behind:
Binder,Kd [1] [nM],OD450 nm [2] [OD450 nm],OD450 nm [3] [OD450 nm],OD450 nm [4] [OD450 nm],OD450 nm [5] [OD450 nm],OD450 nm [6] [OD450 nm],OD450 nm [7] [OD450 nm],OD450 nm [9] [OD450 nm],OD450 nm [10] [OD450 nm],OD450 nm [11] [OD450 nm],OD450 nm [12] [OD450 nm],OD450 nm [13] [OD450 nm],OD450 nm [14] [OD450 nm],OD450 nm [15] [OD450 nm],OD450 nm [16] [OD450 nm],OD450 nm [17] [OD450 nm],OD450 nm [18] [OD450 nm],OD450 nm [19] [OD450 nm],OD450 nm [20] [OD450 nm],OD450 nm [21] [OD450 nm],further results
"96F8C6, fully human anti-PCSK9 antibody (antibody, human IgG1, V domains shown, also called 98F8C6) VH: EVQLVESGGGLVQPGGSLRLSCAASGITFSSYWMSWVRQAPGKGLEWVANIKQDGSEKYYVDSVKGRFTISRDIAKNSLYLQMNSLRAEDTAVYYCARDRGTYYYGSGSYNYYYYGMDVWGQGTTVTVSS VL: not shown",3.63,3,0.25,2.4,2.99,0.08,2.4,2.38,2.38,3.09,2.43,1.65,0.06,2.4,3.1,2.97,0.06,1.86,0.09,3.06,Kd [8]: 2.33 nM; OD450 nm [22]: 2.38 OD450 nm; OD450 nm [23]: 0.06 OD450 nm; OD450 nm [24]: 0.31 OD450 nm; OD450 nm [25]: 0.08 OD450 nm; OD450 nm [26]: 2.45 OD450 nm
"139G1C5, fully human anti-PCSK9 antibody (antibody, human IgG1, V domains shown) VH: QVQLQESGPGLVKPSGTLSLTCAVSGGSISRNNWWSWVRQPPGKGLEWIGEIYHSGSTNYNPSLKSRVTISVDKSKNQFSLKLSSVTAADTAVYYCARDLLGIGLDYWGQGTLVTVSS VL: EFVLTQSPATLSLSPGERAILSCRASQSFSSYIAWYQQKPGQAPRLLIYDASNRATGIPARFSGSGSGTDFTLTISSLEPEDFAVYYCQQHSNWMYTFGQGTKLEIK",0.63,3.01,0.26,2.16,3,0.08,1.29,1.57,2.33,3.05,2.31,1.7,0.06,2.31,3.06,3,0.06,1.84,0.08,3.04,koff [1]: 0.000161 s⁻¹; kon [1]: 254000 M⁻¹ s⁻¹; Kd [8]: 0.0709 nM; koff [8]: 2.4e-05 s⁻¹; kon [8]: 240000 M⁻¹ s⁻¹; OD450 nm [22]: 1.35 OD450 nm; OD450 nm [23]: 0.06 OD450 nm; OD450 nm [24]: 0.29 OD450 nm; OD450 nm [25]: 0.08 OD450 nm; OD450 nm [26]: 2.28 OD450 nm

# From patent publication US20180355059A1 (PHARMAEXPLORER, published 2018)
